Measurements: the supplement of paper PMC10567573
± gives the standard deviation.

Assay: protein stability index of a GFP-peptide fusion (GPS, HEK-293T) (PSI 1-6); higher = more stable
Conditions: c terminus: a fixed tail appended
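Note: 24-mer peptide tiles fused after GFP, lentivirally expressed, FACS-sorted into six equal bins by GFP/DsRed ratio, decoded by Illumina sequencing, PSI is the read-weighted mean bin number.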

Sequence | protein stability index (treatment: DMSO) | protein stability index (treatment: MLN4924 1 uM, 8 h)
IEKCTTPLSDDHDEKYGVPSLEEL [CRY1] | 5.11 ± 0.25 | 5.14 ± 0.18
IEKFIREPSLKATMGLAGRARVKE [ALG2] | 3.6 ± 0.18 | 3.62 ± 0.33
IERGASLEEVNDEGYTPLMEAARE [ANKRD17] | 5.34 ± 0.23 | 5.06 ± 0.21
IFQIGVLGFGPTYVVLAYTLPPAS [SOAT1] | 2.97 ± 0.27 | 3.23 ± 0.68
IGHFNTASGVGFILGPVVGGYLTE [MFSD9] | 2.38 ± 0.53 | 2.31 ± 0.39
IHIIDFGLAKEYIDPETKKHIPYR [CSNK1G3] | 2.1 ± 0.36 | 2.33 ± 0.17
IINTKKLSARDHQKLEREARICRL [CAMK2A] | 3.19 ± 0.23 | 3.27 ± 0.25
ILDTDEYVLKYMESNAAQYSPEAL [EFHC1] | 3.99 ± 0.31 | 3.96 ± 0.38
ILENTSKVPAPKDVLAHQVPNAKK [NOP53] | 4.23 ± 0.27 | 4.43 ± 0.16
ILEVLRSSPMVQVDEKGEKVRPSH [LARP4] | 3.61 ± 0.27 | 3.71 ± 0.12
ILFYCHFPDLLLTKRDSFLKRLYR [ALG2] | 2.81 ± 0.6 | 2.18 ± 0.51
ILINNGSRIKGWWVFHHYVSTFLS [TMEM120A] | 2.17 ± 0.64 | 2.38 ± 0.42
ILNPHVHVIGEDAACIAYIRLTQY [CAMK2B] | 2.51 ± 0.63 | 2.31 ± 0.27
ILTLPEMMRMFSENLAHHLEIDSG [TRIM15] | 2.44 ± 0.3 | 2.44 ± 0.31
INQSFTGAERKAALCELLEKETQI [IQUB] | 4.38 ± 0.23 | 4.01 ± 0.19
INQVLLFLLIVTLCVILYKKVHKG [GLT8D2] | 3.12 ± 0.29 | 3.04 ± 0.9
IPEGLNYSENAPFHLSLFQGWMNL [PLD5] | 2.2 ± 0.55 | 1.91 ± 0.38
IPTVKPLKPRPEPPKKPSNWRRKH [ZC2HC1A] | 4.2 ± 0.24 | 4.24 ± 0.11
IQKNKLKLTREQEELEEALEVERQ [MNAT1] | 5.23 ± 0.31 | 5.24 ± 0.17
ISESGGLNWKMTLCLLVAWSIVGM [SLC6A17] | 2.71 ± 0.28 | 2.83 ± 0.67
ISQQDPESDSQGQGNGLFYSSGPQ [ZC2HC1C] | 4.83 ± 0.48 | 5.08 ± 0.19
IVGSQGAEGALEEVPLEVLRQRES [TBC1D10A] | 5.17 ± 0.34 | 5.31 ± 0.26

Sequence | protein stability index (treatment: DMSO) | protein stability index (treatment: MLN4924 1 uM, 8 h)
IYGHVTLMRAQRNYMVQTEDQYIF [PTPRD] | 2.61 ± 0.58 | 2.87 ± 1.1
KAENARLVVNIDNAKLASDDFRSK [KRT34] | 4.62 ± 0.16 | 4.71 ± 0.14
KAFGVGVAYRSLGRFEQLGKTAAS [FSD1] | 2.77 ± 0.3 | 2.69 ± 0.24
KAGRRMFPACRVSVTGLDPEARYL [TBX6] | 2.36 ± 0.56 | 1.86 ± 0.2
KALEILRKDFSELRSAGVEQLMYI [FAM50A] | 2.55 ± 0.31 | 2.38 ± 0.49
KAMAKLSKLASNGTPMGTFAPLWE [FCHO1] | 2.23 ± 0.41 | 2.48 ± 0.12
KDFLTGMCLFLQSLRQKQPERLCS [GMPPB] | 2.25 ± 0.44 | 2.23 ± 0.36
KDMSESQDEVPDEVENQFILRLPL [TAF7L] | 4.41 ± 0.26 | 4.85 ± 0.15
KDRASPADLRTNHTLNNLVEKLLR [TRIM35] | 2.44 ± 0.27 | 2.48 ± 0.13
KEACDQHGPDLYPKFKKWCDDYFF [CPOX] | 2.31 ± 0.27 | 2.58 ± 0.32
KEDASEFQILKYLFQIDVYDFMNS [MIA2] | 2.5 ± 0.65 | 2.76 ± 0.24
KEHPDVQLLEDAILIIQGVLSDIN [NET1] | 2.49 ± 0.73 | 2.47 ± 0.23
KEKCVSLPDCCHGSELRDFPGRPM [DLC1] | 3.82 ± 0.33 | 3.76 ± 0.4
KEMSKVWNDLRPKLSCLFAGPHST [SNX8] | 2.63 ± 0.7 | 2.79 ± 0.59
KEQLSNDRETQEGKPPTAHLDRTS [ELOA2] | 5.56 ± 0.32 | 5.59 ± 0.16
KESRAQTLQNGRRHIHHLGNQLQL [BRF1] | 3.55 ± 0.15 | 3.63 ± 0.31
KESSPSGSKSQRYSGAYGASVSDE [CHCHD3] | 5.31 ± 0.5 | 4.99 ± 0.12
KFLAKVNGSDPRSFPLWYEEALKD [MAGEA10] | 2.62 ± 0.39 | 3.06 ± 0.4
KHSTIFDVGENLTVPDEFTVEERQ [SLC25A25] | 5.07 ± 0.22 | 4.98 ± 0.22
KIIQLGLTFMNEQGEYPPGTSTWQ [CNOT7] | 2.23 ± 0.2 | 2.19 ± 0.18
KILEVVGRYSVHNAGISFSVKKQG [MLH1] | 2.19 ± 0.93 | 1.91 ± 0.51
KILRSMSRKVTTNKLLLSIIILLE [VTI1B] | 2.48 ± 0.53 | 2.32 ± 0.42

Sequence | protein stability index (treatment: DMSO) | protein stability index (treatment: MLN4924 1 uM, 8 h)
KIRRGQFCIPEHISPKARCLIRSL [TRIB1] | 2.29 ± 0.48 | 2.29 ± 0.4
KKAYDYFQAKKIPIVSSLADPLDT [PDZK1] | 3.64 ± 0.23 | 3.88 ± 0.35
KKEEPEPETEAVSSSQEIPTMPQP [ZMYND11] | 5.45 ± 0.47 | 5.55 ± 0.23
KKKSILMKQLQQQQHSDKTSLQGL [ISL2] | 3.86 ± 0.2 | 4.04 ± 0.27
KKLTGGANWQPKVAPATWSAGVPP [SNAP91] | 3.27 ± 0.18 | 3.34 ± 0.14
KLQDVFEMRFAKMPDEPVEAPALP [BRD3] | 3.49 ± 0.23 | 3.62 ± 0.34
KMAAFHGAGLKRYLLTVMAAAAKA [ADAMTS4] | 2.43 ± 0.21 | 2.58 ± 0.5
KMGLQERSETFLEVWGNALLRPPV [DNAAF3] | 2.52 ± 0.55 | 2.49 ± 0.34
KMNPKLKTLLAIGGWNFSTQKFTD [CHIT1] | 2.37 ± 0.11 | 2.3 ± 0.39
KMREFTKTIKRPFGVKYNPYTRSI [TPH1] | 2.25 ± 0.21 | 2.31 ± 0.17
KNWWVRGILTLAMIAFFFIIIYLG [CDS2] | 3.07 ± 0.36 | 2.85 ± 0.52
KPDKAVSIIECDMNVDFDAPLGYK [UFD1] | 3.94 ± 0.34 | 4.21 ± 0.2
KPDSVGLPPCAVRNLQDLARIYIR [PCMTD1] | 2.94 ± 0.085 | 2.85 ± 0.1
KPEDTAEDLTAKRKRMKMDKTCSK [FAM9B] | 5.3 ± 0.2 | 5.43 ± 0.11
KPENISLRNKLRELCVKLMFLHPV [SMG5] | 2.9 ± 0.52 | 3.06 ± 0.34
KPGFLAPRDLPKHTPLISKSQSLR [RASAL3] | 3.61 ± 0.2 | 3.8 ± 0.47
KPHRCHNCGKSFSRLTALTLHQRT [ZNF449] | 2.46 ± 0.096 | 2.78 ± 0.76
KPIHTTILNPHVHVIGEDAACIAY [CAMK2B] | 2.77 ± 0.26 | 2.98 ± 0.18
KPPETSVPVVTPTASTAPPVPATA [SNAP91] | 5.34 ± 0.35 | 5.37 ± 0.18
KQGELPREVRRAQARLLNPSATRA [NOP53] | 4.42 ± 0.46 | 4.47 ± 0.19
KQGSMNFRFIPVLFPNAKKEHVPT [TRAF3IP2] | 2.41 ± 0.41 | 2.48 ± 0.49
